The values below come from a protein production outcome set (Wang et al. 2014).

This data set can be described thus: label from the status in PepcDB records.

As to “MEDLTASVTNRTVSLPLSCVTTDFGLGVIYASKNQESKTTREKPMLVTLNSSLEHTYQKDFKSLREILSRKVAWQTEAVNAISQIICGCKTDSTRRNQASGIWLALLGPDKVGKKKVAMTLSEVFFGGKVNYICVDFGAEHCSLDDKFRGKTVVDYVTGELSRKPHSVVLLENVEKAEFPDQMRLSEAVSTGKIRDLHGRVISMKNVIVVVTSGIAKDNATDHVIKPVKFPEEQVLSARSWKLQIKLGDATKFGVNKRKYELETAQRAVKVQRSYLDLNLPVNETEFSPDHEAEDRDAWFDEFIEKVDGKVTFKPVDFDELAKNIQEKIGSHFERCFGSETHLELDKEVILQILAASWSSLSSGEEEGRTIVDQWMQTVLARSFAEAKQKYGSNPMLGVKLVASSSGLASGVELPAKVDVIW”, the protein production entry is given as “failed”. The same measure for “MEEELPLFSGDSGKPVQATLSSLKMLDVGKWPIFSLCSEEELQLIRQACVFGSAGNEVLYTTVNDEIFVLGTNCCGCLGLGDVQSTIEPRRLDSLNGKKIACLSYGSGPHIVLATTEGEVFTWGHNAYSQLGNGTTNHGLVPCHISTNLSNKQVIEVACGSYHSLVLTSDGEVFAWGYNNSGQVGSGSTVNQPIPRRVTGCLQNKVVVTIACGQMCCMAVVDTGEVYVWGYNGNGQLGLGNSGNQPTPCRVAALQGIRVQRVACGYAHTLVLTDEGQVYAWGANSYGQLGTGNKSNQSYPTPVTVEKDRIIEIAACHSTHTSAAKTQGGHVYMWGQCRGQSVILPHLTHFSCTDDVFACFATPAVTWRLLSVEPDDHLTVAESLKREFDNPDTADLKFLVDGKYIYAHKVLLKIRCEHFRSSLEDNEDDIVEMSEFSYPVYRAFLEYLYTDSISLSPEEAVGLLDLATFYRENRLKKLCQQTIKQGICEENAIALLSAAVKYDAQDLEEFCFRFCINHLTVVTQTSGFAEMDHDLLKNFISKASRVGAFKN”: “failed”; for “MEEHGHHEMEGTPLGCHSHIKLLKINREHLVTNIRNTQCLVDNLLENGYFSAEDAEIVCACPTKPDKVRKILDLVQSKGEEVSEFFLYVLQQLEDAYVDLRLWLSEIGFSPSQLIRTKTIVNTDPVSRYTQQLRHQLGRDSKFMLCYAQKEDLLLEETYMDTLMELVGFNNENLGSLGGLDCLLDHSTGVLNEHGETVFVFGDAGVGKSMLLQRLQSLWASGRLTSTAKFFFHFRCRMFSCFKESDMLSLQDLLFKHFCYPEQDPEEVFSFLLRFPHTALFTFDGLDELHSDFDLSRVPDSCCPWEPAHPLVLLANLLSGRLLKGAGKLLTARTGVEVPRQLLRKKVLLRGFSPSHLRAYARRMFPERTAQEHLLQQLDANPNLCSLCGVPLFCWIIFRCFQHFQTVFEGSSSQLPDCAVTLTDVFLLVTEVHLNRPQPSSLVQRNTRSPAETLRAGWRTLHALGEVAHRGTDKSLFVFGQEEVQASKLQEGDLQLGFLRALPDVGPEQGQSYEFFHLTLQAFFTAFFLVADDKVSTRELLRFFREWTSPGEATSSSCHSSFFSFQCLGGRSRLGPDPFRNKDHFQFTNLFLCGLLAKARQKLLRQLVPKAILRRKRKALWAHLFASLRSYLKSLPRVQSGGFNQVHAMPTFLWMLRCIYETQSQKVGRLAARGISADYLKLAFCNACSADCSALSFVLHHFHRQLALDLDNNNLNDYGVQELQPCFSRLTVIRLSVNQITDTGVKVLCEELTKYKIVTFLGLYNNQITDIGARYVAQILDECRGLKHLKLGKNRITSEGGKCVALAVKNSTSIVDVGMWGNQIGDEGAKAFAEALKDHPSLTTLSLAFNGISPEGGKSLAQALKQNTTLTVIWLTKNELNDESAECFAEMLRVNQTLRHLWLIQNRITAKGTAQLARALQKNTAITEICLNGNLIKPEEAKVFENEKRIICF”: “failed”. The same measure for “MEEKAKMRRLSTWKLKLRMFLATVLLFGLIYAILMVVGSILGLGGPLFYALLGFGVIFLQYLISPKIVELTMNVHYVSEAEAPRLHAMVDELARRAGIPKPMVGIAEIALPNAFAFGRTKADGRVCVTRGILNLLDEEELRAVLGHEISHIKHSDMIVMTLVSAVPLICYYIFWSTVFSRDDEANLVGIAALIAYFIGQLIVLFISRTREYYADQGSVEIGGQPHKLASALYKLVLRLSPVQQGRPETGRGCQGLLPE”: “failed”; for “MEEKNIHMQPNINYSYRNPNMYNMNYHNPIVPPPQQQMQLFVNDWKSILSPMQTCKIKQQFDDREFVADYFMGFKLDFNNKYLILDASTELMKFTACEKSEFCYRNCLPKICIPMNMKILSYGKEISKPDILMEKDCTCTFLCFNRPTIKMYDFSNNNNKELIGTIKTPYRCCSYNFNLFDPSNNKIMYMDDTCCQMSILCPCPWGPFKYSNFFLRDANSKEKIAHLRKEVPFLKFVKRDIDNYTLDFEQVQNPEWKMMLLAFALFLDYMYYDRK”: “failed”. The same measure for “MEELLREYLPILVFLAVAAGLGLVLILAAVVLAVRNPDPEKVSAYECGFNAFDDARMKFDVRFYLVSILFIIFDLEIAFLFPWAVGFKDMSDVGFWSMMVFLGVLTIGFAYEWKKGALEWQ”: “failed”. Take “MEEMFETSLKVIEQSGWLAPVLFIMLHVFRQVFFIPVIIICLVGGYLFGSFYGSLYSIIGLTATSALFYGIVHGFPRFLAKVSQLKKRFLGEKESLSLPQMMLLRIVPFIHFHLVSLYVMETRPTFREYMKISFYLSMPPAIIYTLFGDMIHELPLVGTVVFALFIGLLCFMARRKEQRYAWQEFFKA”: the protein production entry is “failed”. Regarding “MEEMNVFLTMIYRELKRFIRSPSRIIGSILNPLLWLIFFGKGWSGVFNFPMATRIFGGVDYMTYLVPGVVVMTVFDMSFLQGLTIIWDKQFGFMKEILVAPASRVESILGRITGGAIVAMIQGFIMVALSFIVANLKVSGVIPTLILAFFVGVAIAGLGVAVALKMSSMEGFQIIVMMLMLPMMFLSGAFYPVRTMPNWMQWLAKINPLTYAVDGARYYLAGVTPTFGIMQDWIVLILLALVFAGFAGLEFRKAYLS”, the protein production result is on record as “failed”. The same measure for “MEENTAVAAAERRSGCGLLSVMFGRRGLWSKKSTAVDNGSQKSTSTAATATSNIQFTKSPGTELKKPRDDQKVSAEPIQNNKIQNNQNHNQRSVVPSKPSSNQYPNNHQLGTYENHQRSSYNNNSNSVDPYRGGGGQRKVPREAIGLSGELESMITDHQKAKGTNGLVRASSSNIMLYGNLGNLNQTGPVTAGVNYGNNNGYGVKRTTMGAATATTTKSQDQSGSLCRAISTRMDPETLKIMGNEDYKNGNFAEALALYDAAIAIDPNKAAYRSNKSAALTALGRILDAVFECREAIRIEPHYHRAHHRLGNLYLRLGEVEKSIYHFKHSGPEADREDIAKAKTVQTHLNKCTEAKRLRDWNGLITETTNTISSGADAAPQVYALQAEALLKTHRHQEADDALSRCPVFDIDASTRYYGPVGYAGFLVVRAQVHLASGRFDEAVEAIQRAGKLDGNNREVIMISRRAQAVTEARFKGNELFKSGRFQEACAAYGEGLDHDPRNSVLLCNRAACRSKLGQFDKSIEDCTAALSVRPGYGKARLRRADCNAKIEKWELAVGDYEILKKESPEDEQVIRGLSEAQQQLMKRSGQDS”: “failed”; for “MEERELTLSDILLMFKRRSKLFWLVLVLTVFATGIYLFLATPQYEAYARVKVSTQKGMRLGLSIEGLLGGLSSLLGGGGSQEDEIQIMLSRRNIIAVIDELDLVHKLLDEKDIEKAKKNGLTEDDLKLSLYSYMVEKLITVEPVKNSSILEVKVTWHEPKLAAEIANKIVENYTKISENIAKSQLGAKMDFLEEQIPKVEQELKEAESKLKVFKEQNRIYSVEAQTQVLIDRYASLLQKMEEARIAMEATQKQSEFFSKELKDLDIEIEQIKDSITFDPIISQLKSNMINIQIELAGLMERYTETNPAVVQKKAELQETQKQLEIELKRLLTSQVKKTGNPVYEEALSSLIKAESEKILYQSQYEAFKKLYEDMEKELSKLPELEQKLIELERDYKVKETIYTTLLQAKYESLISEAAITANANVIDWAVPPLEPSKPNKKLTLAIGGVLGIFLGILAVFFAEFSDRRIKSESEAEYLLGLEKIVARVPLTQNEEVMEKALGIPAVKSGKVTFITALEDGAGVSTLAKHMAKLLSKKEKVLLLTEEKVEGTFDRKDVFDLLKNPDVLEELKERYDKIIVDAPSLKRTPDFLPIAEKSDTVYIVIRLEHTLSEDLKTLHTLKKIDGFILNGLTKKNSTYVE”: “failed”; for “MEEVIWEQYTVTLQKDSKRGFGIAVSGGRDNPHFENGETSIVISDVLPGGPADGLLQENDRVVMVNGTPMEDVLHSFAVQQLRKSGKIAAIVVKRPRKVQVAPL”: “not failed”. The same measure for “MEFAPRSVVIEEFIDTLEPMMEAYGLDQVGIFEEHGEGNRYYVGYTINKDDEMITIHMPFVKNERGELALEKQEWTVRKDGREKKGFHSLQEAMEEVIHS”: “not failed”.
